Data from PMC2692654.
Read-outs that look alike come from different tables or passages of the source.

T1: M.HhaI methyltransferase (UniProt P05102 1-327)
T1 sequence: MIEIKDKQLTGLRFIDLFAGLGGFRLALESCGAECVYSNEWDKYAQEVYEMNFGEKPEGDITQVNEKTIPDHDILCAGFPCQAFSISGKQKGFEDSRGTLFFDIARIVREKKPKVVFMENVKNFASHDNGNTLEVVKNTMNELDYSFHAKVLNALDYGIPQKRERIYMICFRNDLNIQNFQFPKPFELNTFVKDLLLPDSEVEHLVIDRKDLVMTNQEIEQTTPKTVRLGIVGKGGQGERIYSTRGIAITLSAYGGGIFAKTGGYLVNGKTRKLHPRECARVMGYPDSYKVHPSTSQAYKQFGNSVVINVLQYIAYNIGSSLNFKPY


Key:
[1] = molecular target: T1, M.HhaI methyltransferase; assay: electrochemical E-DNA sensor
[2] = molecular target: T1, M.HhaI methyltransferase; assay: electrochemical E-DNA sensor; remark: listed apart in the source

Row | Binder | binding result [1] | binding result [2]
1 | AAGACGAGCGCATGTTTATGCGCTC (structured_DNA, 5' HS-(CH2)6 thiol; internal T16 C5-linked methylene blue) [M.HhaI probe] | binds | –
2 | CGGGCTATATAAGGGGCGTTTTCTTATATAG (structured_DNA, 5' HS-(CH2)6 thiol; internal T10 C5-linked methylene blue) [TATA probe] | – | no binding
